Assay results taken from US20100143379A1 (priority 2005, published 2010).

How the values were obtained:
[1] = tested on: human K562 progenitor cell line; test: K562 terminal erythropoietic differentiation (DAF stain) and hemoglobin content; type: cell-based
Description: The neutralizing anti-MIF mAb was added at 100 μg/ml. DAF positive cells were enumerated and expressed as fold-change over total, input cells. FIG. 2B: cellular hemoglobin content of cultured K562 progenitor cells. […] Each value represents the mean±SD of at least three different experiments. *P<0.01 versus corresponding controls.
(§1) The human K562 progenitor cell line (ATCC, CCL-243) was cultured in RPMI/10% FBS supplemented with penicillin and streptomycin. For differentiation, sodium butyrate (AldRick, Milwaukee, Wis.) was added in the medium (Witt et al. 2000. Blood 95:2391-2396). Terminal erythropoietic differentiation was measured as described by McGukin et al. (McGuckin et al. 2003. European Journal of Haematology 70:106-114) and positive cells enumerated after staining with 2,7-diaminofluorene (Sigma, St. Louis, Mo.). To quantify hemoglobin synthesis, the cells were centrifuged and washed in PBS, and the cell pellet resuspended in lysis buffer (100 mM potassium phosphate pH 7.8, 0.2% Triton X-100) before disruption by aspiration through a 21-gauge needle. After microcentrifugation, the supernatant was collected and the hemoglobin concentration was determined using the hemoglobin kit from Sigma. Cell viability was assessed by trypan blue dye exclusion and found to be equivalent (85-90% viability) between all samples studied.

ERK-1/2 [2] = test: ERK-1/2 phosphorylation in murine embryonic fibroblasts and peritoneal macrophages; type: cell-based; conditions: wild-type, CD74-KO and CD44-KO cells
Description: Whole cell lysates then were prepared and analyzed by Western blotting with specific anti-phospho-ERK-1/2 (p-ERK1/2) or anti-total ERK/1/2 antibodies. […] Peritoneal macrophages were stimulated for 10 mins (Mitchell et al. (1999). J Biol Chem 274:18100-6) and the lysates then analyzed by Western blotting. […] Recombinant, sCD74 was incubated with MN overnight in a 3:1 molar ratio prior to addition to cells for 10 mins. Epidermal growth factor (EGF) was used as a positive control for ERK-1/2 phosphorylation (Yamamoto et al. (2003). Develop Biol 260:512-521). Data shown are representative of three experiments.
Signal Transduction Assays. […] The human CD74 ectodomain (CD74^73-232) was prepared recombinantly in soluble form (sCD74) as described previously (Leng et al. (2003). J Exp Med 197:1467-1476). […] Cells then were harvested and lysed in buffer containing 50 mM Hepes, pH7.5, 150 mM NaCl, 1.5 mM MgCl2, 1 mM EGTA, 1% Glycerol and 1% Triton X-100, and freshly added phosphatase and proteinase inhibitors (1 mM orthovanandate, 10 mM NaF, 10 μg/ml leupeptin, 25 μg/ml aprotinin and 50 μg/ml PMSF). For immunoblotting, 15-20 μg of cell lysate proteins were separated by 10% SDS-PAGE and transferred to PVDF Immobilon-P transfer membranes (Millipore). […]

p38 = test: MAP kinase phosphorylation in differentiating K562 progenitors (Western blot); type: cell-based, human; conditions: 16 hrs, p<0.01; 96 hrs, p<0.04
Description: (§2) MIF addition markedly affected these differentiation-associated, MAP kinase responses.
(§3) Western Blot Analysis. Immunoblotting with antibodies directed against phospho-ERK1/2, total ERK1/2, phospho-JNK1/2, total JNK1/2, phospho-p38, and total p38 was performed according to the manufacturer's instructions (New England Biolabs, Beverly, Mass.). The secondary antibody was an anti-rabbit IgG conjugated to horseradish peroxidase and detection was by chemiluminescence according to the manufacture's instructions (Amersham Pharmacia Biotech, Piscataway, N.J.). For quantitation of signal intensity of phospho-specific kinase results, western blots were scanned using a UMAX, PowerLook IIII scanner and the images were analyzed using UN-SCAN-IT gel Automated Digitizing system software version 5.1 (Silk Scientific Corporation, USA). The ratio between phosphorylated to the total MAP kinase was determined and expressed as a fold-change for each lane (mean±S.E.M for three blots from independent cell cultures). The p values were calculated for each of the time course comparisons (4, 16, 96 hrs) of three different experiments (Student T-test, two-tailed).

ERK-1/2 [3] = test: as above; type: cell-based, human; conditions: K562 in differentiation medium
Description: as §2, §3

CCR5 = test: Cell surface receptor expression in monocyte-derived macrophages (FACS); type: cell-based; conditions: 50 ng/ml with PMB 10 μg/ml, 48 h
Description: (§4) Cell surface expression of CCR5 and CXCR4 was analyzed by FACS after staining with FITC-conjugated anti-CCR5 and PE-conjugated anti-CXCR4 antibodies (Pharmingen). Results (percent of receptor-positive cells) are shown as mean±SE for three performed experiments.
(§5) Cell surface expression of CCR5 and CXCR4 was analyzed by FACS after staining with FITC-conjugated anti-CCR5 and PE-conjugated anti-CXCR4 antibodies (Pharmingen) (FIG. 9).

CXCR4 = test: as above; type: cell-based; conditions: 50 ng/ml with PMB 10 μg/ml, 48 h
Description: as §4, §5

erythroid progenitors = test: Cytotoxicity by Trypan blue exclusion; type: cell-based
Description: as §1

p53 [4] = test: Cytoplasmic Ser15-phosphorylated p53 content, COS-7 cells; type: cell-based; conditions: during apoptosis induction
Description: (§6) Apoptosis Studies. […] Cell lysates were collected, and caspase-3 activity analyzed using a colorimetric assay kit (R&D Systems). Cytoplasmic p53 content was analyzed as described previously (Mitchell et al. (2002). Proc Natl Acad Sci USA 99:345-350) by immunoblotting of mouse cytosolic fractions using a pair of anti-phospho-p53 (Ser15) (R&D Systems) and total anti-p53 antibodies (Cell Signaling); and for COS-7 cells, the anti-p53 (Ser15) and total anti-p53 antibodies (Cell Signaling). In vivo apoptosis studies followed the procedures of (Mitchell et al. (2002). Proc Natl Acad Sci USA 99:345-350), and were conducted after i.p injection of 15 mg/kg lipopolysaccharide (E. coli 0111:B4; Sigma). Mice were sacrificed 24 hrs after priming and the peritoneal macrophage cells collected and immediately analyzed for apoptosis by an ELISA that detects cytoplasmic oligonucleosomes (Roche Diagnostics). Primary macrophages also were immunostained by Alexa 488-conjugated, Annexin V (Invitrogen), and apoptotic cells enumerated by fluorescence microscopy.

p53 [5] = test: Ser15-phosphorylated p53 content, macrophages; type: cell-based, mouse; conditions: during apoptosis induction
Description: as §6

B1: MIF: macrophage migration inhibitory factor; recombinant mouse or human MIF purified essentially free of endotoxin (protein)
chain: PMFIVNTNVPRASVPDGFLSELTQQLAQATGKPPQYIAVHVVPDQLMAFGGSSEPCALCSLHSIGKIGGAQNRSYSKLLCGLLAERLRISPDRVYINYYDMNAANVGWNNSTFA
- terminal erythropoietic differentiation (DAF stain) ([1]; MIF 200 ng/ml for 96 hrs): inhibited the terminal erythropoietic differentiation
- hemoglobin production ([1]; cellular hemoglobin content of cultured K562 progenitor cells): inhibition of cytodifferentiation and hemoglobin production
- ERK-1/2 phosphorylation (ERK-1/2 [2]): induced ERK-1/2 phosphorylation only in wild-type cells
- differentiation-associated changes in p38 MAP kinase phosphorylation (p38): reduced
- duration of ERK-1/2 phosphorylation (ERK-1/2 [3]): at least 96 hrs
- ERK-1/2 phosphorylation (ERK-1/2 [3]; 16 hrs): phosphorylation was high at 16 hrs
- CCR5 expression (CCR5): substantially reduces CCR5 expression
- CXCR4 expression (CXCR4): without altering expression of CXCR4
- cytotoxic effects (erythroid progenitors): Neither MIF nor anti-MIF were found to exert cytotoxic effects
- intracytoplasmic content of Ser15-phosphorylated p53 (p53 [4]): reduction in the intracytoplasmic content
- cellular content of Ser15-phosphorylated p53 (p53 [5]): diminution in the cellular content
